Data reported in patent US20220119534A1 (DRAGONFLY THERAPEUTICS, published 2022).
Changes are numbered by the printed parent chain. Values belong to the binder of their own block, whether it stands above or below them.

Key:
[1] = target: T1, human CLEC12A expressed on cells (human, UniProt Q5QGZ9 1-265); assay: flow cytometry (gMFI) on CLEC12A+ PL-21 AML cells
T1 construct: Transduced isogenic cells or endogenous expression on AML cells; also called RMA-hCLEC12A; Ba/F3-hCLEC12A
T1 sequence: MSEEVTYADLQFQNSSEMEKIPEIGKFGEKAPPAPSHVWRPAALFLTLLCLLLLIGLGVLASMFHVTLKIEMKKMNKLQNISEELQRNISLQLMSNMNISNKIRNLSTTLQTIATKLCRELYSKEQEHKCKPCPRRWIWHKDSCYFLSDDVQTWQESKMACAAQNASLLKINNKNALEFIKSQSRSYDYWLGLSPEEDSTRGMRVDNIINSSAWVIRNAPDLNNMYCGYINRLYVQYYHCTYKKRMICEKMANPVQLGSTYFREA

[2] = target: T2, recombinant human CD16a F158 (human, UniProt P08637 17-208); assay: SPR, summary table
T2 construct: also called FcγRIIIa F158
Description: (§1) Human and cyno CD64, high and low affinity alleles of CD16a (V158 and F158, respectively), two alleles of CD32a (H131 and R131), CD16b, CD32b and cynomolgus CD16 were captured via biotin on a primed Biacore chip, prepared according to the manufacturer's instructions.

[3] = target: T3, recombinant human CD32a R131 (human, UniProt P12318 36-218, limits assumed, biotinylated); assay: SPR, summary table
T3 construct: also called FcγRIIa R131
T3 sequence (looked up): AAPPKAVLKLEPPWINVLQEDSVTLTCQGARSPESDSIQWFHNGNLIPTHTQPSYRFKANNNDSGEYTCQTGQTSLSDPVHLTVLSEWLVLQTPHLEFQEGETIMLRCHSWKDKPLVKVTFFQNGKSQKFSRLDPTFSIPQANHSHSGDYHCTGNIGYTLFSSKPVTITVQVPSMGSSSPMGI
Description: as §1

[4] = target: T4, recombinant cynomolgus CD16 (cynomolgus monkey, UniProt Q8SPW2 17-208, biotinylated); assay: SPR, summary table
T4 construct: also called cFcγRIII; cyno CD16
Description: as §1

[5] = target: T5, recombinant human CD16a V158 (human, UniProt P08637 17-208, biotinylated); assay: SPR, summary table
T5 construct: also called FcγRIIIa V158; hCD16aV
Description: as §1

recombinant human CD64 = target: T6, recombinant human CD64 (human, UniProt P12314 16-288, biotinylated); assay: SPR, summary table
T6 construct: also called hFcγRI; hCD64
Description: as §1

[6] = target: T7, recombinant human CD32a H131 (human, UniProt P12318 36-218, limits assumed, biotinylated); assay: SPR, summary table
T7 construct: also called FcγRIIa H131
T7 sequence (looked up): T3 sequence (looked up) with R132H
Description: as §1

[7] = target: T8, recombinant cynomolgus CD64 (cynomolgus monkey, UniProt A0A2K5U901 33-309, Biotinylated for capture on the CAP chip; the biotin site is not stated.); assay: SPR, summary table
T8 construct: also called cFcγRI; cyno CD64; not shown: The vendor's biotinylation and purification tag, used for capture via biotin

recombinant human CD32b = target: T9, recombinant human CD32b (human, UniProt P31994 46-217, limits assumed, biotinylated); assay: SPR, summary table
T9 construct: also called FcγRIIb
T9 sequence (looked up): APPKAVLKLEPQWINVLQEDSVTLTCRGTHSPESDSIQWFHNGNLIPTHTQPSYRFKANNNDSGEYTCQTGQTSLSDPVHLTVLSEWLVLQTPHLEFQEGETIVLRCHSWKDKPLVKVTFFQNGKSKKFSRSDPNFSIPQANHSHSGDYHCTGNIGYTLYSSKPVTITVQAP
Description: as §1

recombinant human CD16b = target: T10, recombinant human CD16b (human, UniProt O75015 17-200, limits assumed, biotinylated); assay: SPR, summary table
T10 construct: also called FcγRIIIb
Description: as §1

Human CD16b = target: T11, Human CD16b (human, UniProt O75015 17-200, limits assumed, biotinylated); assay: SPR, summary of FcγR affinities
T11 construct: Bought recombinant receptor; also called hFcγRIIIb

Human CD32b = target: T12, Human CD32b (human, UniProt P31994 46-217, limits assumed, biotinylated); assay: SPR, summary of FcγR affinities
T12 construct: Bought recombinant receptor; also called hFcγRIIb
T12 sequence (looked up): T9 sequence (looked up)

Human CD32a H131 = target: T13, Human CD32a H131 (human, UniProt P12318 36-218, limits assumed, biotinylated); assay: SPR, summary of FcγR affinities
T13 construct: Bought recombinant receptor; also called hFcγRIIa H131
T13 sequence (looked up): T3 sequence (looked up) with R132H

Cynomolgus CD16 = target: T14, Cynomolgus CD16 (cynomolgus monkey, UniProt Q8SPW2 17-208, biotinylated); assay: SPR, summary of FcγR affinities
T14 construct: Bought recombinant receptor; also called cFcγRIII; Cynomolgus FcγRIII

Human CD64 = target: T15, Human CD64 (human, UniProt P12314 16-288, biotinylated); assay: SPR, summary of FcγR affinities
T15 construct: Bought recombinant receptor; also called hFcγRI; Human CD64 (FcγRI)

Human CD16a V158 = target: T16, Human CD16a V158 (human, UniProt P08637 17-208, biotinylated); assay: SPR; control sample (CST pH 7.0 study)
T16 construct: Bought recombinant receptor; also called hCD16a (V158); hFcγRIIIa V158

Human CLEC12A-His = target: T17, Human CLEC12A-His (human, UniProt Q5QGZ9 65-265); assay: SPR; control sample (CST pH 7.0 study)
T17 construct: Recombinant soluble protein made in house; also called hCLEC12A-His; hCLEC12A; not shown: His tag
T17 sequence: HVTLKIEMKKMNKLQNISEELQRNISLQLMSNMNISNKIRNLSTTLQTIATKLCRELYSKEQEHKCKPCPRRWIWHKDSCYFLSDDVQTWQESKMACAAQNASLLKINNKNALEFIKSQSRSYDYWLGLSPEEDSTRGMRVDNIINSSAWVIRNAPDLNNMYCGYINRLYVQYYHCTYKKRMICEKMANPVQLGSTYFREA

T16 sequence (P08637 17-208 F176V limits assumed): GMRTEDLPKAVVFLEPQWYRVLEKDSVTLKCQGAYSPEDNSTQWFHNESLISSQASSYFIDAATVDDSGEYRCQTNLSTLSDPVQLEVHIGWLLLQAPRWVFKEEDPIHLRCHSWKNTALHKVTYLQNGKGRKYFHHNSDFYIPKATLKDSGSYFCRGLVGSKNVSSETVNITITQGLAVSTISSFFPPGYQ
T2 sequence (P08637 17-208 limits assumed): as the sequence (P08637 17-208 F176V limits assumed) above, with V160F counted along it
T5 sequence (P08637 17-208 F176V limits assumed): as the sequence (P08637 17-208 F176V limits assumed) above
T4 sequence (Q8SPW2 17-208 limits assumed): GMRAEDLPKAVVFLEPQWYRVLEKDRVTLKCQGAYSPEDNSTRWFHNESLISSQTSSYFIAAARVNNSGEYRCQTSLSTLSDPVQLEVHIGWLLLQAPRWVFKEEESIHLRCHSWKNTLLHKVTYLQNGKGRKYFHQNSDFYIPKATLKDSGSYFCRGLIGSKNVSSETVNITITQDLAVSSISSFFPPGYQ
T14 sequence (Q8SPW2 17-208 limits assumed): as above
T6 sequence (P12314 16-288 limits assumed): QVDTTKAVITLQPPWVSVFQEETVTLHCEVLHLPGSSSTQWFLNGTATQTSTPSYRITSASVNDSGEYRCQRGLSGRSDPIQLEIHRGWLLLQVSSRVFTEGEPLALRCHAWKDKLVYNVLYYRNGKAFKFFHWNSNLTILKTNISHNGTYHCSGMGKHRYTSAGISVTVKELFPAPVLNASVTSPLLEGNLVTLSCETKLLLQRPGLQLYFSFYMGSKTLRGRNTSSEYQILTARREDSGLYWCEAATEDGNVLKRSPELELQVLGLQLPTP
T15 sequence (P12314 16-288 limits assumed): as above
T10 sequence (O75015 17-200 limits assumed): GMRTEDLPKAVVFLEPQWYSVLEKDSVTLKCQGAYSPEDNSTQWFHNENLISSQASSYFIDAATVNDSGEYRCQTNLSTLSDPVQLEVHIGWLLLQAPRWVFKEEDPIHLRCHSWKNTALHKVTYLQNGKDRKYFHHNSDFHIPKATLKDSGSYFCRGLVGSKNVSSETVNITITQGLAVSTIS
T11 sequence (O75015 17-200 limits assumed): as above
T8 sequence (A0A2K5U901 entry or part of it limits assumed): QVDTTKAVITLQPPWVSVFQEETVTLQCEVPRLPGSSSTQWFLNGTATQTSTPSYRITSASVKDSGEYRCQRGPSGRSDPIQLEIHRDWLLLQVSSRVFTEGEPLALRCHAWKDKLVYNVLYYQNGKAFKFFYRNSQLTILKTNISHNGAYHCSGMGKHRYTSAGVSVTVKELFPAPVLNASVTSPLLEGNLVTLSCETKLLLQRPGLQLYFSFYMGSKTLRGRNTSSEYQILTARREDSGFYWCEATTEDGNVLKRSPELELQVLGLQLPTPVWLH

EC50 [1]: 1.2 nM | Kd [2]: 1110 nM | Kd [3]: 1400 nM | Kd [4]: 306 nM | Kd [5]: 238 nM | Kd (recombinant human CD64): 5.2 nM | Kd [6]: 900 nM | Kd [7]: 2 nM | Kd (recombinant human CD32b): 6600 nM | Kd (recombinant human CD16b): 7500 nM
B1: F3'-1602 TriNKET (other)
chain: QLQLQESGPGLVKPSETLSLTCTVSGFSLTNYGLHWIRQPPGKCLEWIGVIWSGGKTDYNPSLKSRVTISKDTSKNQFSLKLSSVQAADTAVYYCAKYDYDDSLDYWGQGTLVTVSSGGGGSGGGGSGGGGSGGGGSDIQMTQSPSSLSASVGDRVTITCHASQNINFWLSWYQQKPGKAPKLLIYEASNLHTGVPSRFSGSGSGTRFTLTISSLQPEDIATYYCQQSHSYPLTFGCGTKLEIKGSDKTHTCPPCPAPELLGGPSVFLFPPKPKDTLMISRTPEVTCVVVDVSHEDPEVKFNWYVDGVEVHNAKTKPREEQYNSTYRVVSVLTVLHQDWLNGKEYKCKVSNKALPAPIEKTISKAKGQPREPRVYTLPPCRDELTKNQVSLTCLVKGFYPSDIAVEWESNGQPENNYKTTPPVLVSDGSFTLYSKLTVDKSRWQQGNVFSCSVMHEALHNHYTQKSLSLSPG
heavy: EVQLVESGGGLVKPGGSLRLSCAASGFTFSSYSMNWVRQAPGKGLEWVSSISSSSSYIYYADSVKGRFTISRDNAKNSLYLQMNSLRAEDTAVYYCARGAPIGAAAGWFDPWGQGTLVTVSSASTKGPSVFPLAPSSKSTSGGTAALGCLVKDYFPEPVTVSWNSGALTSGVHTFPAVLQSSGLYSLSSVVTVPSSSLGTQTYICNVNHKPSNTKVDKKVEPKSCDKTHTCPPCPAPELLGGPSVFLFPPKPKDTLMISRTPEVTCVVVDVSHEDPEVKFNWYVDGVEVHNAKTKPREEQYNSTYRVVSVLTVLHQDWLNGKEYKCKVSNKALPAPIEKTISKAKGQPREPQVCTLPPSRDELTENQVSLTCLVKGFYPSDIAVEWESNGQPENNYKTTPPVLDSDGSFFLYSWLTVDKSRWQQGNVFSCSVMHEALHNHYTQKSLSLSPG
light: DIQMTQSPSSVSASVGDRVTITCRASQGISSWLAWYQQKPGKAPKLLIYAASSLQSGVPSRFSGSGSGTDFTLTISSLQPEDFATYYCQQGVSFPRTFGGGTKVEIKRTVAAPSVFIFPPSDEQLKSGTASVVCLLNNFYPREAKVQWKVDNALQSGNSQESVTEQDSKDSTYSLSSTLTLSKADYEKHKVYACEVTHQGLSSPVTKSFNRGEC
notes: CLEC12A scFv-Fc, NKG2D A49MI Fab-Fc, human IgG1 Fc; also called AB0237

Kd (Human CD16b): 6010 nM | Kd (Human CD32b): 6060 nM | Kd (Human CD32a H131): 1010 nM | Kd (Cynomolgus CD16): 204 nM | Kd (Human CD64): 5.2 nM | Kd (Human CD16a V158): 171 nM | koff (Human CD16a V158): 0.0199 s⁻¹ | kon (Human CD16a V158): 117000 M⁻¹ s⁻¹ | Kd (Human CLEC12A-His): 1.81 nM | koff (Human CLEC12A-His): 0.0014 s⁻¹ | kon (Human CLEC12A-His): 776000 M⁻¹ s⁻¹
B2: AB0192 TriNKET (other)
chain: EVQLVESGGGVVQPGGSLRLSCAASGFTFNAFGMHWVRQAPGKCLEWVAFISSGSTSIYYANTVKGRFTISRDNSKNTLYLQMNSLRAEDTAVYYCARDGYPTGGAMDYWGQGTSVTVSSGGGGSGGGGSGGGGSGGGGSDIQMTQSPSSLSASVGDRVTITCKASQDIYNYLSWFQQKPGKAPKPLIYRANILVSGVPSRFSGSGSGQDYTFTISSLQPEDIATYYCLQFDAFPFTFGCGTKLEIKGSDKTHTCPPCPAPELLGGPSVFLFPPKPKDTLMISRTPEVTCVVVDVSHEDPEVKFNWYVDGVEVHNAKTKPREEQYNSTYRVVSVLTVLHQDWLNGKEYKCKVSNKALPAPIEKTISKAKGQPREPRVYTLPPCRDELTKNQVSLTCLVKGFYPSDIAVEWESNGQPENNYKTTPPVLVSDGSFTLYSKLTVDKSRWQQGNVFSCSVMHEALHNHYTQKSLSLSPG
heavy: B1 heavy
light: B1 light
notes: the condition stands under assay; also called AB0192 Lot AB0192-005
